Data as given in paper PMC3364743.

Target: T1, CAV1–mCherry (caveolin-1 fused to mCherry), Q03135
T1 chain: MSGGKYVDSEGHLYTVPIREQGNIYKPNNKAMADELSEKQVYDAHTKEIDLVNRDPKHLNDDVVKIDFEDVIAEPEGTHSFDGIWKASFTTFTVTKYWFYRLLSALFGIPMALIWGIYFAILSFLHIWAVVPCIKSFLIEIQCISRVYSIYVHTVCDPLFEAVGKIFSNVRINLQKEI
Assay: FRET or BRET
Conditions: remark: other sources report otherwise

B1: CAV1–mCherry (caveolin-1 fused to mCherry), Q03135 1-178 (natural protein)
chain: T1 chain
FRET efficiency: 48%
